This test addresses T1, tssk 2 fused to the GAL4 DNA binding domain (DNA-BD) (human, UniProt P04386 1-147 (Saccharomyces cerevisiae entry), limits assumed).
T1 construct: Yeast two-hybrid bait expressed in reporter strain AH109; also called bait gene (tssk 2); fusion protein of TSSK2 with the DNA-BD
Nature of the test: yeast two-hybrid, growth in His-free medium (AH109 reporter strain).

B1: GAL4 activation domain alone (GAL-AD plasmid) (other, UniProt P04386 768-881, looked up)
chain: ANFNQSGNIADSSLSFTFTNSSNGPNLITTQTNSQALSQPIASSNVHDNFMNNEITASKIDDGNNSKPLSPGWTDQTAYNAFGITTGMFNTTTMDDVYNYLFDDEDTPPNPKKE
notes: also called GAL-AD alone
Take B1: the binding result is “no binding”.

These data come from patent EP1443117B1 (UNIVERSITY OF VIRGINIA PATENT FOUNDATION, dated 2010).
